Target: T1, Ioc4 PWWP domain (Saccharomyces cerevisiae) (UniProt Q04213)
T1 sequence: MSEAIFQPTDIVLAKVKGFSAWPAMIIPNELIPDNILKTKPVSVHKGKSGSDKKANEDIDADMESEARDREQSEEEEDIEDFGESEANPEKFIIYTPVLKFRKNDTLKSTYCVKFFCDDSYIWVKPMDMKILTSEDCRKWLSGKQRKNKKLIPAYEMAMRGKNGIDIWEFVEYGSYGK
Assay: EMSA
Settings: H3K36me3; H3 tail 1-44 ligated to H3T45C; Xenopus laevis histones

NCP H3K36me3 showed a binding signal (fold higher affinity vs dsDNA) of 6.

— paper doi:10.1101/2021.02.26.432832
